Test results published in patent publication US20170022281A1 (AbbVie / Abbott, published 2017).

T1: human PRLR (Biacore antigen) (human, UniProt P16471 25-234, limits assumed)
T1 construct: The construct injected over captured antibody is not described (a soluble form is likely); also called huPRLR
T1 sequence: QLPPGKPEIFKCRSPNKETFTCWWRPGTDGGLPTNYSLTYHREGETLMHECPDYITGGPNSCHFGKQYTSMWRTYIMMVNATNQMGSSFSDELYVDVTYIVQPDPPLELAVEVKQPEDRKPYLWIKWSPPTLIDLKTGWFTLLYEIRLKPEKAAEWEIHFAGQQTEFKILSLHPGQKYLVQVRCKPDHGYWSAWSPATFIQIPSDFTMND

T2: human PRLR ECD-Fc fusion protein (human, UniProt P16471 25-233)
T2 construct: not shown: Fc region (captured by goat anti-human Fc)
T2 sequence: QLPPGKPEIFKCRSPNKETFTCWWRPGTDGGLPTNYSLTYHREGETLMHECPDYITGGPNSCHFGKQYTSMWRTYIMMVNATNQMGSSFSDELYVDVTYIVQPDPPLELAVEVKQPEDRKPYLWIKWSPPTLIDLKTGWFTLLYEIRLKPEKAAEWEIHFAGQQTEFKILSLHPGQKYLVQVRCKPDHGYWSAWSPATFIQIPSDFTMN

T3: cyno PRLR ECD-his6 protein (cyno)
T3 chain: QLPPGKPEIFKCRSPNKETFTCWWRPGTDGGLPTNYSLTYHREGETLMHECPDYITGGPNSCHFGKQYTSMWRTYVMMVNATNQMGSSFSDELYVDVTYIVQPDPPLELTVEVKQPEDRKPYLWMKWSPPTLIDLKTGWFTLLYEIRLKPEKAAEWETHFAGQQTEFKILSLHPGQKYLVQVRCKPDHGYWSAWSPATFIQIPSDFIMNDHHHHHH

B1: Ab48 (antibody, human IgG1, kappa, V domains shown)
VH: EVQLVQSGAEVKKPGASVKVSCKASGYTFTDYNIHWVRQAPGQGLEWIGYIYPNNDGTGYNQKFKSRATLTVDNSTSTAYMELRSLRSDDTAVYYCARGDGNYVGDMDYWGQGTTVTVSS
VL: DIQMTQSPSSLSASVGDRVTITCRASENIYSYLAWYQQKPGKPPKLLVYNAKTLAEGVPSRFSGSGSGTDFTLTISSLQPEDFATYYCQHHYATPFTFGQGTKLEIKR
notes: humanized from Ab8; G1; also called Ab3 HC.1a and Ab3 LC.1a
B2: LFA102 (antibody, human IgG1, kappa, V domains shown)
VH: EVQLVESGGGLVQPGGSLRLSCAVSGFTFSSYGMSWVRQAPGKRLEWVATVSSGGTYTYYPDSVKGRFTISRDNSKNTLYLQMNSLRAEDTAMYYCARHRGNYYATYYYAMDYWGQGTLVTVSS
VL: DIVLTQSPDSLAVSLGERATINCKASKSVSTSGYTYMHWYQQKPGQPPKLLIYLASNRESGVPDRFSGSGSGTDFTLTISPVQAEDVATYYCQHSGELPPSFGQGTKLEIKR
notes: humanized IgG1 kappa comparator (WO 2008022295)
B3: chAb6 (antibody, human IgG1, kappa, V domains shown)
VH: QVQLQQPGAELVMPGSSVKLSCKASGYTFTTYWMHWVKQRPGQGLEWIGEIDPSDSYSNYNQKFKDKATLTVDKSSSTAYMQLSSLTSEDSAVYYCARNGGLGPAWFSYWGQGTLVTVSA
VL: DIVMTQSQKFMSTTVGDRVSITCKASQYVGTAVAWYQQKPGQSPKLLIYSASNRYTGVPDRFTDSGSGTDFTLTISNLQSEDLADYFCQQYSSYPWTFGGGTKLEIKT
notes: chimeric, murine variable and human G1/kappa constant regions
B4: chAb5 (antibody, human IgG1, kappa, V domains shown)
VH: QVQLQQPGAELVRPGTSVKLSCKASGYTFTSFWMHWVKQRPGQGLEWIGVIDPSDTYTNYNQKFKGKATLTVDTSSSTAYMQLSSLTSEDSAVYYCARGDYSNWFTYWGQGTLVTVSA
VL: DVVMTQTPLSLPVSLGDQASISCRSSQRLVHSNGNTYLHWYLQKPGQSPKLLIYKVSNRFSGVPDRFSGSGSGTDFTLKISRVEAEDLGVYFCSQSTHVPWTFGGGTKLEIKT
notes: as for B3

Target: T1, human PRLR (Biacore antigen)
Test: SPR simultaneous binding; PRLR held by surface mAb chAb7
Protocol: (§1) Running buffer was HBS-EP+ (10 mM Hepes, pH7.4, 150 mM NaCl, 3 mM EDTA, 0.05% surfactant). Assay was performed at 12° C. using Biacore T200 and CM5 sensor chips with anti-human IgG (Pierce) amine-coupled in all 4 flow cells to ˜2000 RU.
(§2) Separate test mAbs were captured in flowcells 2, 3 & 4 (flowcell 1 was reference, no test mAb). All 4 flowcells were then blocked by injection with isotype control mAb at 50 ug/ml. All 4 flowcells were then injected with antigen or buffer only (buffer only is for double referencing, done for each mAb pair individually). All 4 flowcells were then injected with 2nd test mAb at 10 ug/ml. All 4 flowcells were then regenerated with glycine, pH1.5.

| Binder | solution mAb binding, % of PRLR binding [%] |
| --- | --- |
| B1 | 0 |
| B2 | 39 |
| B3 | 1 |
| B4 | 0 |

Target: T1, human PRLR (Biacore antigen)
Test: SPR simultaneous binding; PRLR held by surface mAb chAb5
Protocol: as §1, §2

| Binder | solution mAb binding, % of PRLR binding [%] |
| --- | --- |
| B1 | 0 |
| B2 | 32 |
| B3 | 0 |
| B4 | 0 |

Target: T1, human PRLR (Biacore antigen)
Test: SPR simultaneous binding; PRLR held by surface mAb Ab30
Protocol: as §1, §2

| Binder | solution mAb binding, % of PRLR binding [%] |
| --- | --- |
| B1 | -1 |
| B2 | 35 |
| B3 | -1 |
| B4 | -1 |

Target: T1, human PRLR (Biacore antigen)
Test: SPR simultaneous binding; PRLR held by surface mAb chAb6
Protocol: as §1, §2

| Binder | solution mAb binding, % of PRLR binding [%] |
| --- | --- |
| B1 | -2 |
| B2 | 26 |
| B3 | -1 |
| B4 | -1 |

Target: T1, human PRLR (Biacore antigen)
Test: SPR simultaneous binding; PRLR held by surface mAb Ab48
Protocol: as §1, §2

| Binder | solution mAb binding, % of PRLR binding [%] |
| --- | --- |
| B1 | -1 |
| B2 | -1 |
| B3 | 0 |
| B4 | 8 |

Target: T1, human PRLR (Biacore antigen)
Test: SPR simultaneous binding; PRLR held by surface mAb chAb8
Protocol: as §1, §2

| Binder | solution mAb binding, % of PRLR binding [%] |
| --- | --- |
| B1 | -1 |
| B2 | 1 |
| B3 | 0 |
| B4 | 7 |

Target: T1, human PRLR (Biacore antigen)
Test: SPR simultaneous binding; PRLR held by surface mAb Ab21
Protocol: as §1, §2

| Binder | solution mAb binding, % of PRLR binding [%] |
| --- | --- |
| B1 | -1 |
| B2 | 21 |
| B3 | -1 |
| B4 | -1 |

Target: T1, human PRLR (Biacore antigen)
Test: SPR simultaneous binding; PRLR held by surface mAb Ab39
Protocol: as §1, §2

| Binder | solution mAb binding, % of PRLR binding [%] |
| --- | --- |
| B1 | -2 |
| B2 | 36 |
| B3 | -2 |
| B4 | -2 |

Target: T1, human PRLR (Biacore antigen)
Test: SPR simultaneous binding; PRLR held by surface mAb Ab49
Protocol: as §1, §2

| Binder | solution mAb binding, % of PRLR binding [%] |
| --- | --- |
| B1 | -2 |
| B2 | 1 |
| B3 | 0 |
| B4 | 7 |

Target: T2, human PRLR ECD-Fc fusion protein
Test: ELISA on ECD
How it was run: (§3)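 PRLR was captured on blocked plates for 1 h, then incubated 1 h with serial antibody dilutions in PBS pH 7.4/0.05% Tween 20 containing 10% Superblock. HRP secondary and TMB gave signal read at 450 nm, and EC50 came from curve fitting.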

| Binder | EC50 [nM] |
| --- | --- |
| B1 | 0.0746 |
| B2 | 0.053 |
| B3 | 0.103 |
| B4 | 0.098 |

Target: T3, cyno PRLR ECD-his6 protein
Test: ELISA on ECD
How it was run: as §3

| Binder | EC50 [nM] |
| --- | --- |
| B1 | 0.236 |
| B2 | 0.154 |
| B3 | 0.072 |
| B4 | 0.103 |

Target: T1, human PRLR (Biacore antigen)
Test: SPR simultaneous binding; PRLR held by surface mAb LFA102
Protocol: as §1, §2

| Binder | solution mAb binding, % of PRLR binding [%] |
| --- | --- |
| B1 | -2 |
| B2 | -2 |
| B3 | 90 |
| B4 | 102 |
